In article PMC8487509 one finds binding data, which are given here for 1 sequence.

This data set deals with T1, LsrR (Escherichia coli DCM5 (mammary pathogenic)) (UniProt Q8XAY6).
T1 sequence: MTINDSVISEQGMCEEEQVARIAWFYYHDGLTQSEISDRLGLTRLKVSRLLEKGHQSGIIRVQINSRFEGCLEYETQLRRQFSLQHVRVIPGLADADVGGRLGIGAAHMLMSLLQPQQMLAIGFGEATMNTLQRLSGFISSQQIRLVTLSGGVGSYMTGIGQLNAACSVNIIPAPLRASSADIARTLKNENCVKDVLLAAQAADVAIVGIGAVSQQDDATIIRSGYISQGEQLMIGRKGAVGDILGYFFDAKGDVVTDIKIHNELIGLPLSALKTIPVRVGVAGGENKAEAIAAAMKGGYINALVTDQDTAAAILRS
Description: EMSA. As to conditions: 5x binding buffer (4 µL) […].

Regarding “TCCGCAAAAGTTCACGTTGGCTTTAGTTATTCGAGTTGAGAAACTCTCGAAACGGGCAGTGACTTCAAGGGTTAAAAGAGGTGCCGCTCCGTTTCTGTGAGCAATTATCAGTCAGAATGCTTGATAGGGATAATCGTTCATTGCTATTCTACCTATCGCCATGAACTATCGTGGCGATGGAGGATGGATA (double strand) [p-oxyR]”, the binding entry was “no binding”.
